B1: F2 phage (peptide)
peptide: SMFVAGSDRWPGYGVLADWL
B2: R20α-3-20E2-IR (peptide)
peptide: FYDAIDQLVRGSARAGGTRD
B3: R20β-4-E8-IR (peptide)
peptide: VRGFQGGTVWPGYEWLRNAA
B4: A6S-3-E2-IR (peptide)
peptide: TSEVQRRSQDNFYDWFVAQVA
B5: H2CA-3-E11-IGFR (peptide)
peptide: HLADGQFHEKFYDWFERQISSRCNDC
B6: 20C-3-G3-IGFR (peptide)
peptide: TFYSCLASLLTGTPQPNRGPWERCR
B7: B6Hα-1-B5-IR (peptide)
peptide: CCTTEMWMDARDDPFYHKLSELVTGG
B8: 20E2B-1-A6-IGFR (peptide)
peptide: GVRAMSFYDALVSVLGLGPSG
B9: R20 -4-20A12-IR (peptide)
peptide: RLFYCGIQALGANLGYSGCV
B10: NNRPγ-4-B11-IR (peptide)
peptide: LKDGFYDYFWQRLHLGS
B11: B6Hα-1-A2-IR (peptide)
peptide: RGCNDDGGKGWSDDPFYHKLSELICGG
B12: 20E2A-4-F11-IGFR (peptide)
peptide: QGGSASFYDAIDRLLRMRIGG

The binders below were run against soluble human insulin receptor (IR-Fc) (human) (UniProt P06213) (assay: phage ELISA; non-fat milk blank 0.09).
For B1, the absorbance (405 nm) was 1.43.

Each binder was assayed against soluble IGF-1 receptor (human) (UniProt P08069) (assay: phage ELISA; non-fat milk blank 0.09).
For B1, the absorbance (405 nm) was 2.08.

The binders below were run against soluble human insulin receptor (IR-Fc) (human) (UniProt P06213) (assay: phage ELISA).
Work on B2 yielded a ratio over background of 3.1. B3 was tested, and the ratio over background was 3.6. For B4, the ratio over background was 9.8. For B5, the ratio over background was 1. Binder B6 has a ratio over background of 1.2. B7 gave a ratio over background of 1. With B8 the ratio over background was 1.1. B9 gave a ratio over background of 2.4. In the case of B10, the ratio over background is reported as 1.2. For B11, the ratio over background was 1. B12 gave a ratio over background of 1.3.

These binders were tested against soluble IGF-1 receptor (human) (UniProt P08069) (assay: phage ELISA).
In the case of B2, the ratio over background is reported as 39.9. B3 gave a ratio over background of 34.9. With B4 the ratio over background was 24.7. B5 gave a ratio over background of 2.2. For B6, the ratio over background was 32.3. With B7 the ratio over background was 20.5. In the case of B8, the ratio over background is reported as 18.1. B9 showed a ratio over background of 39.9. With B10 the ratio over background was 18.7. Binder B11 has a ratio over background of 14.6. In the case of B12, the ratio over background is reported as 18.8.

What follows are binders tested against soluble human insulin receptor (IR-Fc) (human) (UniProt P06213) (assay: phage ELISA; non-fat milk blank 0.11).
For B2, the absorbance (405 nm) was 1.01.

Each binder was assayed against soluble IGF-1 receptor (human) (UniProt P08069) (assay: phage ELISA; non-fat milk blank 0.11).
With B2 the absorbance (405 nm) was 2.15.

These binders were tested against soluble human insulin receptor (IR-Fc) (human) (UniProt P06213) (assay: phage ELISA; non-fat milk blank 0.10).
B3 showed an absorbance (405 nm) of 1.34.

Each binder was assayed against soluble IGF-1 receptor (human) (UniProt P08069) (assay: phage ELISA; non-fat milk blank 0.10).
For B3, the absorbance (405 nm) was 2.
